Assay results published in US20250051454A1 (DUKE UNIVERSITY, published 2025).
Substitutions are numbered along the chain they refer to.

B1: CA173 (antibody, V domains shown)
VH: EVQLVESGGGLVKPGGSLRLSCAASGFTFSSYSMNWVRQAPGEGLEWVSSISSSSTYIYYADSVKGRFTISRDNAKNSLYLQMNSLRAEDTAVYYCARDRPAGSSSLGSGYFDLWGRGTLVTVSS
VL: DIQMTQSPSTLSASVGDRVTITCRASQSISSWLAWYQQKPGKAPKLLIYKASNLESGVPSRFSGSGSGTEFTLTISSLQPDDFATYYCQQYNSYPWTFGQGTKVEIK
B2: CA166 (antibody, V domains shown)
VH: EVQLVESGGGLVKPGGSLRLSCAASGFTFSSYSMNWVRQAPGKGLEWVSSISSSSSYIYYADSVKGRFTISRDNAKNSLYLQMNSLRAEDTAVYYCARVMITFGGADYWGQGTLVTVSS
VL: DIQMTQSPSSLSASVGDRVTITCRASQNINTYLNWYQKRPGIAPKLLIYGASSLQSGVPSRFSGSGSGTDFTLTISSLQPEDFATYYCQQYHTSPLTFGGGTPVDIK
B3: CA170 (antibody, V domains shown)
VH: B2 VH with V99D, M100R, I101D, T102L, F103L, G104D, G105A, A106F, Y108I, L114M
VL: SYVLTQPPSVSVAPGQTARITCGGNNIGSKSVHWYQQKPGQAPVLVVYDDSDRPSGIPERFSGSNSGNTATLTISRVEAGDEADYYCQVWDSSSDHPWVFGGGTKLTVL
B4: CA162 (antibody, V domains shown)
VH: QVQLVESGGGLVKPGGSLRLSCAASGFTFSDYYMSWIRQAPGKGLEWVSYISSSSSYTNYADSVKGRFTISRDNAKNSLYLQMNSLRAEDTAVYYCARGRTMFKNYYDSSGYYGYFDYWGQGTLVTVSS
VL: DIQMTQSPSSVSASVGDRVTITCRASQGISSWLAWYQQKPGKAPKLLIYAASSLQSGVPSRFSGSGSGTDFTLTISSLQPEDFATYYCQQANSPLTFGGGTKVEIK
B5: CA153 (antibody, V domains shown)
VH: EVQLVESGGGLVKPGGSLRLSCAASGFTFSSYSMNWVRQAPGKGLEWVSSISSSSSYIYYADSVKGRFTISRDNAKNSLYLQMNSLRAEDTAVYYCARLTYYYYMDVWGKGTTVTVSS
VL: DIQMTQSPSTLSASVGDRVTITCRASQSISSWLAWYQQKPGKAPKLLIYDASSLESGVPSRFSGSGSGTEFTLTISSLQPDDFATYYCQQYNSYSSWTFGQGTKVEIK
B6: CA158 (antibody, V domains shown)
VH: B5 VH with L99M, T100Y, Y101Q, Y102L, Y103A, Y104A, M105I, V107Y, K110Q, T113L
VL: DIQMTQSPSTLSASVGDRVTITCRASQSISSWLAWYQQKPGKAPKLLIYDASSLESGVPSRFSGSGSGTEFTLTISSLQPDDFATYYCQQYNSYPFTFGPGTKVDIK
B7: CA151 (antibody, V domains shown)
VH: QVQLQESGPGLVKPSETLSLTCTVSGGSVSSGSYYWSWIRQPPGKGLEWIGYIYYSGSTNYNPSLKSRVTISVDTSKNQFSLKLSSVTAADTAVYYCASFTRMSPYAFDIWGQGTMVTVSS
VL: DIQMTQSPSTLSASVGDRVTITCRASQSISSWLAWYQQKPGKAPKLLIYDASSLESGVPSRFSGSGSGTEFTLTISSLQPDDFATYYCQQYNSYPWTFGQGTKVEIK
B8: CA169 (antibody, V domains shown)
VH: EVQLVESGGGLVKPGGSLRLSCAASGFTFSSYSMNWVRQAPGKGLEWVSSISSSSSYIYYADSVKGRFTISRDNAKNSLYLQMNSLRAEDTAVYYCASGVLLEAFDYWGQGTLVTVSS
VL: SYVLTQPPSVSVAPGQTARITCGGNNIGSKSVHWYQQKPGQAPVLVVYDDSDRPSGIPERFSGSNSGNTATLTISRVEAGDEADYYCQVWDSSSDHVVFGGGTKLTVL
B9: CA159 (antibody, V domains shown)
VH: QVQLVQSGAEVKKPGSSVKVSCKASGGTFSSYAISWVRQAPGQGLEWMGGIIPIFGTANYAQKFQGRVTITADESTSTAYMELSSLRSEDTAVYYCARASYYYYYMDVWGKGTTVTVSS
VL: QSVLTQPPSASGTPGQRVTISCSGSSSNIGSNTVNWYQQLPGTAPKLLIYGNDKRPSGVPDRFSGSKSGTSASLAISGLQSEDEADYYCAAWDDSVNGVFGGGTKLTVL
B10: CA168 (antibody, V domains shown)
VH: QVQLVQSGAEVKKPGSSVKVSCKASGGTFSSYAISWVRQAPGQGLEWMGGIIPIFGTANYAQKFQGRVTITADKSTSTAYMELSSLRSEDTAVYYCARALTYYDFPDYGMDVWGQGTTVTVSS
VL: QSALTQPPSASGSPGQSVTISCTGTSSDVGGYNYVSWYQQHPGKVPKLMIYEVTKRPSGVPDRFSGSKSGNTASLTVSGLQAEDEADYYCSSYAGSNNLVFGGGTKLTVL
B11: CA175 (antibody, V domains shown)
VH: EVQLVESGGGLVQPGGSLRLSCAASGFTFSTYPMNWVRQAPGKGLEWVSYISSSSSTIYYADCVKGRFTISRDNAKNSLYLQMNSLRDEDTAVYYCARYYIAYGMDVWGQGTTVTVSS
VL: DIQMTQSPSSMSASVGDRVTITCRASQGISNYLAWFQQKPGKAPKRLIYGASSLHRGVPSRFSGSGSGTEFTLTITSLQPEDFATYYCLQHNTYPRTFGQGTKVEIK
B12: CA176 (antibody, V domains shown)
VH: QVQLVESGGGVVQPGRSLRLSCAASGFTFSSYGMHWVRQAPGKGLEWVAVISYDGSNKYYADSVKGRFTISRDNSKNTLYLQMNSLRAEDTAVYYCAKDEGSSDFWSGYYASFDYWGQGTLVTVSS
VL: DIQMTQSPISLSASVGDRVTITCRASQDISNYLTWYQQKPGKAPKLLIYAASSLQSGVPSRFSGSGSGTDFTLTISNLQPEDFATYYCQQNYSYPCTFGQGTKVEIK
B13: CA157 (antibody, V domains shown)
VH: EVQLVESGGGLVQPGGSLRLSCAASGFTFSSYEMNWVRQAPGKGLEWVSYISSSGSTIYYADSVKGRFTISRDNAKNSLYLQMNSLRAEDTAVYYCARGYCSSTSCPFDYWGQGTLVTVSS
VL: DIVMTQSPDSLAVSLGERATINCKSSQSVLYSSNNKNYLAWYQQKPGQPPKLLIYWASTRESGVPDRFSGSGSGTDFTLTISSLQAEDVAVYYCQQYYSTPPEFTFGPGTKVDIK
B14: CA156 (antibody, V domains shown)
VH: EVQLVESGGGLVKPGGSLRLSCAASGFTFSSYSMNWVRQAPGKGLEWVSSISSSSSYIYYADSVKGRFTISRDNAKNSLYLQMNSLRAEDTAVYYCARDFSGDFWSGYDYWGQGTLVTVSS
VL: not shown
B15: CA152 (antibody, V domains shown)
VH: QVQLVQSGAEVKKPGSSVKVSCKASGGTFSSYAISWVRQAPGQGLEWMGGIIPIFGTANYAQKFQGRVTITADESTSTAYMELSSLRSEDTAVYYCARGQWSPGGYGMDVWGQGTTVTVSS
VL: not shown
B16: CA154 (antibody, V domains shown)
VH: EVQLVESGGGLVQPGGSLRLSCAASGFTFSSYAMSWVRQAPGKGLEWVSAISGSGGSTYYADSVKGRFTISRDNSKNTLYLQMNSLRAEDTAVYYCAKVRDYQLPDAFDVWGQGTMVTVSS
VL: AIRMTQSPSSFSASTGDRVTITCRASQGISSYLAWYQQKPGKAPKLLIYAASTLQSGVPSRFSGSGSGTDFTLTISCLQSEDFATYYCQQYYSYALTFGGGTKVEIK

What follows are binders tested against T1, HLA-E-RL9HIV single chain trimer on transfected 293T cells (human, UniProt P61769 21-119; P13747 22-358) (assay: flow cytometry, SCT-transfected 293T cells, MFI bar chart [E]).
T1 construct: also called control HLA-E-peptide complex

Binder | binding result
B1 | no binding (tested: 2 µg/ml)
B2 | no binding (tested: 2 µg/ml)
B3 | no binding (tested: 2 µg/ml)
B4 | no binding (tested: 2 µg/ml)
B5 | no binding (tested: 2 µg/ml)
B6 | no binding (tested: 2 µg/ml)
B7 | no binding (tested: 2 µg/ml)
B8 | no binding (tested: 2 µg/ml)
B9 | no binding (tested: 2 µg/ml)
B10 | no binding (tested: 2 µg/ml)
B11 | no binding (tested: 2 µg/ml)
B12 | no binding (tested: 2 µg/ml)
B13 | no binding (tested: 2 µg/ml)
B14 | no binding (tested: 2 µg/ml)
B15 | no binding (tested: 2 µg/ml)
B16 | no binding (tested: 2 µg/ml)

Each binder was assayed against T2, HLA-E-RL9SIV single chain trimer on transfected 293T cells (human, UniProt P61769 21-119; P13747 22-358) in the same assay as above.
T2 construct: also called control HLA-E-peptide complex

Binder | binding result
B1 | no binding (tested: 2 µg/ml)
B2 | no binding (tested: 2 µg/ml)
B3 | no binding (tested: 2 µg/ml)
B4 | no binding (tested: 2 µg/ml)
B5 | no binding (tested: 2 µg/ml)
B6 | no binding (tested: 2 µg/ml)
B7 | no binding (tested: 2 µg/ml)
B8 | no binding (tested: 2 µg/ml)
B9 | no binding (tested: 2 µg/ml)
B10 | no binding (tested: 2 µg/ml)
B11 | no binding (tested: 2 µg/ml)
B12 | no binding (tested: 2 µg/ml)
B13 | no binding (tested: 2 µg/ml)
B14 | no binding (tested: 2 µg/ml)
B15 | no binding (tested: 2 µg/ml)
B16 | no binding (tested: 2 µg/ml)
